Series [1] has as its target αvβ3 integrin (Homo sapiens, UniProt P05106+P06756). As to the kind of experiment: SPR of crosslinked and native pAzF diblock constructs. The settings on record: crosslinked UAA5-40-based constructs. Type of series: binding. The protocol: (§1) Though we were interested in the downstream effects of the treatment with crosslinked nanoparticles, we also wanted to investigate how chemical crosslinking affected the binding to the cell membrane receptors themselves. For this, the binding affinities of crosslinked and native diblock architectures were evaluated using surface plasmon resonance (SPR).
To characterize the integrin-targeting constructs, we started by determining the KD values of the UAA5-40-based constructs. […] A closer look at the SPR sensograms describes the mechanism for this effect where the main reason for the increased KD for the ligands is a result of vastly different association rates (kon) rather than differences in koff.

Series [2] can be described thus: Static and dynamic light scattering (SLS/DLS) of block co-polypeptides. It counts as physicochemical. The settings on record: for ρ / Nagg / Rg(nm) / Rh (nm): Table 9; for ρ: Rg/Rh; for Nagg / Rg(nm) / Rh (nm): UCST-UCST block co-polypeptides. Put shortly: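 Samples at 10 μM in PBS (140 mM NaCl, 10 mM phosphate, 3 mM KCl, pH 7.4), filtered 0.45 μm, measured at 15 °C over 30°–150° in 5° steps. Rh from cumulant fit of DLS, extrapolated to zero angle. Rg and MW from partial Zimm plots of SLS.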

Series [3] in a line: Temperature-programmed dynamic light scattering. Type of series: physicochemical. The settings on record: upon cooling. The protocol:
Temperature-programmed dynamic light scattering experiments were carried out using a Dynapro plate reader (Wyatt Technology; Santa Barbara, Calif.) with samples filtered through 0.45 μm Millex-GV filters. Data were collected at increments of 1° C., and the cumulant fit hydrodynamic radius was taken as the radius. The Tt was defined as the temperature at which aggregates of size hundreds of nanometers were formed.
Each block co-polypeptide was analyzed by dynamic light scattering (DLS) at several temperatures between 4° C. and 37° C. to determine the thermal stability of the micelles, and to determine their radius of hydration (Rh). […] In contrast, RLP40-ELP80 (SEQ ID NO: 84) and RLP40-ELP80-Fn3 (SEQ ID NO: 96) self-assembled into micelles with a Rh of 30 and 32 nm, respectively, between 20-37° C. (FIG. 15).
Therefore, to get a more accurate picture, we monitored the Rh as we slowly cooled the solution. We observed two different overall behaviors. [S]-40-[QHN]-40 (SEQ ID NO: 100) upon cooling underwent a clear unimer to micelle transition at ˜55° C. and a clear micelle to aggregate transition at 28° C. (FIG. 32B). A unimer to micelle transition that is temperature dependent is known as the critical micellization temperature (CMT). As we know from before, this UCST aggregation temperature is dependent on the solution concentration. [S]-80-[QHN]-40 (SEQ ID NO: 101) remained a micelle at the highest temperature we could measure with the instrument. Upon cooling the size of the aggregate increased slightly until a clear aggregate transition at 18° C.

Series [4] in a line: Critical micelle concentration by pyrene I1/I3 fluorescence. Type of series: physicochemical. The settings on record: inflection point of sigmoidal fit, triplicate data. The protocol: Key parameters of interest are the hydrophilicity of the corona-forming block, the hydrophilicity of the core block, the overall length of the co-polypeptide and the ratio of the two blocks. Parameters of evaluation are the size, morphology, stability, and thermoresponsive behavior. All measurements were made in 140 mM NaCl, 10 mM phosphate buffer, 3 mM KCl, pH 7.4 unless otherwise specified. Size was evaluated by the hydrodynamic radios (Rh) and radius of gyration (Rg) by dynamic light scattering (DLS) and static light scattering (SLS) respectively. Rg and Rh can be combined to yield the shape factor ρ=Rg/Rh, which provides a rough indication of the morphology of the scatterer. […] For an elongated scatterer, the shape factor depends upon the aspect ratio. A combination of temperature dependent turbidity and DLS was utilized to determine the phase behavior of the block co-polypeptides. Cryogenic transmission electron microscopy (Cryo-TEM) was utilized to evaluate the morphology and provide crucial insight into the hydration of the core/corona chains. Stability of the assembled nanostructure was determined by a shift in the I1/I3 fluorescent bands of pyrene as described previously.
All of these modifications to the core and corona chains prompted us to measure the critical micelle concentration (CMC) of these micelle constructs. […]

Series [5] addresses DR5 (Homo sapiens, UniProt O14763). As to the kind of experiment: SPR of DR5-targeting UAA5-40 constructs. It counts as binding. The settings on record: native construct, same concentration range. The protocol:
as §1
This extremely good binding constant can be mainly attributed to the koff rate which is so low that it is most probably even below the limit of detection of the SPR instrument. As opposed to the integrin-targeting UAA5-40 particles, we however also observed very strong binding for the native Tn3 construct in the same concentration range (FIG. 53B). […] Principally, this was not a too unexpected result since we already knew that apoptosis induction via DR5-binding required downstream trimerization of the ligand-bound DR5 receptors in the cell membrane. Therefore, we had expected that the reported multivalency requirement for Tn3-action was at least partly stemming from this mechanistic effect rather than the DR5-binding itself.

Where only a bound is given, the exact number is not on record here.

Chain of αvβ3 integrin (P06756 31-889 limits assumed): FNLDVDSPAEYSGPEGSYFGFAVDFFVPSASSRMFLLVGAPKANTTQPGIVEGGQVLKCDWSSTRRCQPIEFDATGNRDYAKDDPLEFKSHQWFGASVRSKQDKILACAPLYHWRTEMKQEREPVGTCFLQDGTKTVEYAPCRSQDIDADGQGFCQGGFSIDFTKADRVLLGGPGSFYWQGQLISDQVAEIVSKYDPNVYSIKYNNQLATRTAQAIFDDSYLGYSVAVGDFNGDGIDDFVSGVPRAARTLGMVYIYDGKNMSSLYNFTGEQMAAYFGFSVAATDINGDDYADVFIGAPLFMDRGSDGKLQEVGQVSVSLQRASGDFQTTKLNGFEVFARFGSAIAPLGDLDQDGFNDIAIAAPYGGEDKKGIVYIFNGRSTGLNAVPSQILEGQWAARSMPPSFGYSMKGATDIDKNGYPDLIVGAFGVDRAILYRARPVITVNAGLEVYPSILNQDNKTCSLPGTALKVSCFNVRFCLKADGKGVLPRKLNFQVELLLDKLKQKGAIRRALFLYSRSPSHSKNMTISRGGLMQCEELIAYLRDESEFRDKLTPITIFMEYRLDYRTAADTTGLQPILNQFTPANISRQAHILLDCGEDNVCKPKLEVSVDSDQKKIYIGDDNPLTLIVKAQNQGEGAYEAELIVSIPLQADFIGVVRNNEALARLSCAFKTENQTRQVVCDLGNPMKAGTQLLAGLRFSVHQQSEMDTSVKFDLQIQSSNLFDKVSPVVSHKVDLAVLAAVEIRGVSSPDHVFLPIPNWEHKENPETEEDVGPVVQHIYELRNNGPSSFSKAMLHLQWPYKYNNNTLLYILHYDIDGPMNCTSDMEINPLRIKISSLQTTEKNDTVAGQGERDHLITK
Chain of αvβ3 integrin (P06756 891-1048 partner limits assumed): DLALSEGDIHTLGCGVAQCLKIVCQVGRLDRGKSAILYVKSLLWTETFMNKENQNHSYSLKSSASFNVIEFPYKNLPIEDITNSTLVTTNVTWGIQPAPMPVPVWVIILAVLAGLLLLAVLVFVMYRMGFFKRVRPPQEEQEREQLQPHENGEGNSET
Chain of αvβ3 integrin (P05106 27-788): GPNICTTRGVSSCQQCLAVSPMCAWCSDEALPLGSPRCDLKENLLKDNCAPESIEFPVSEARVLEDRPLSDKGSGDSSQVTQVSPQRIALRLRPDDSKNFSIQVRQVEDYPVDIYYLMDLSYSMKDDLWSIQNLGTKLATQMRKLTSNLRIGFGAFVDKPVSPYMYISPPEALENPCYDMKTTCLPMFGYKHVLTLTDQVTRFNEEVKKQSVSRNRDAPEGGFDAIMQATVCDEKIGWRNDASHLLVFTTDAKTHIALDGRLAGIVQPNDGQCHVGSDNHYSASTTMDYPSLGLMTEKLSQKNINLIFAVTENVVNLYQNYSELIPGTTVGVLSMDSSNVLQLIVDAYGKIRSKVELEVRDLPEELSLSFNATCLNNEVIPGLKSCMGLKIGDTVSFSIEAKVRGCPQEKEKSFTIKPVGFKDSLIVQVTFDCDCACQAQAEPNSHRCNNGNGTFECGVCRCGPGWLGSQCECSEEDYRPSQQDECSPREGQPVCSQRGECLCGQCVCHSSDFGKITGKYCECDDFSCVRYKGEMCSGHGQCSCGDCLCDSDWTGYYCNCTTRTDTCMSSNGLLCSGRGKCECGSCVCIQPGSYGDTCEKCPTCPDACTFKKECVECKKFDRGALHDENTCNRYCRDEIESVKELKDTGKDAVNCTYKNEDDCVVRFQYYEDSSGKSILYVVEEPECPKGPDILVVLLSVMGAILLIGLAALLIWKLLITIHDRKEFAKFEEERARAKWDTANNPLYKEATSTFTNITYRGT

The term Kd denotes the equilibrium constant for the complex coming apart. “GRGDSPAS: UAA5-40-K8D4-ligand construct with integrin-targeting GRGDSPAS ligand (SEQ ID NO: 76)” had a dissociation constant (Kd) in series [1] of 20 nM.

B1: [S]-80-[QHN]-40: block co-polypeptide of two UCST blocks, (GRGDSPYS)80-(GRGDQPHN)40 (protein)
chain: GRGDSPYSGRGDSPYSGRGDSPYSGRGDSPYSGRGDSPYSGRGDSPYSGRGDSPYSGRGDSPYSGRGDSPYSGRGDSPYSGRGDSPYSGRGDSPYSGRGDSPYSGRGDSPYSGRGDSPYSGRGDSPYSGRGDSPYSGRGDSPYSGRGDSPYSGRGDSPYSGRGDSPYSGRGDSPYSGRGDSPYSGRGDSPYSGRGDSPYSGRGDSPYSGRGDSPYSGRGDSPYSGRGDSPYSGRGDSPYSGRGDSPYSGRGDSPYSGRGDSPYSGRGDSPYSGRGDSPYSGRGDSPYSGRGDSPYSGRGDSPYSGRGDSPYSGRGDSPYSGRGDSPYSGRGDSPYSGRGDSPYSGRGDSPYSGRGDSPYSGRGDSPYSGRGDSPYSGRGDSPYSGRGDSPYSGRGDSPYSGRGDSPYSGRGDSPYSGRGDSPYSGRGDSPYSGRGDSPYSGRGDSPYSGRGDSPYSGRGDSPYSGRGDSPYSGRGDSPYSGRGDSPYSGRGDSPYSGRGDSPYSGRGDSPYSGRGDSPYSGRGDSPYSGRGDSPYSGRGDSPYSGRGDSPYSGRGDSPYSGRGDSPYSGRGDSPYSGRGDSPYSGRGDSPYSGRGDSPYSGRGDSPYSGRGDSPYSGRGDSPYSGRGDSPYSGRGDSPYSGRGDQPHNGRGDQPHNGRGDQPHNGRGDQPHNGRGDQPHNGRGDQPHNGRGDQPHNGRGDQPHNGRGDQPHNGRGDQPHNGRGDQPHNGRGDQPHNGRGDQPHNGRGDQPHNGRGDQPHNGRGDQPHNGRGDQPHNGRGDQPHNGRGDQPHNGRGDQPHNGRGDQPHNGRGDQPHNGRGDQPHNGRGDQPHNGRGDQPHNGRGDQPHNGRGDQPHNGRGDQPHNGRGDQPHNGRGDQPHNGRGDQPHNGRGDQPHNGRGDQPHNGRGDQPHNGRGDQPHNGRGDQPHNGRGDQPHNGRGDQPHNGRGDQPHNGRGDQPHN
Take B1: in series [2], the “shape factor / form factor (Rg/Rh)” value is more than 1, the ρ is listed as 1.2, the Nagg was 1430 and the “Rg(nm)” value stood at 75.7 nm. Moreover, the “Rh (nm)” value in series [2] is listed as 62.8 nm. For the same molecule, in series [3], the “micelle to aggregate transition (UCST aggregation)” value worked out at 18 °C. For the same molecule, the “critical micelle concentration (CMC)” value in series [4] came out at 0.4 µM.

B2: [S]-40-[QHN]-40: block co-polypeptide of two UCST blocks, (GRGDSPYS)40-(GRGDQPHN)40 (protein)
chain: GRGDSPYSGRGDSPYSGRGDSPYSGRGDSPYSGRGDSPYSGRGDSPYSGRGDSPYSGRGDSPYSGRGDSPYSGRGDSPYSGRGDSPYSGRGDSPYSGRGDSPYSGRGDSPYSGRGDSPYSGRGDSPYSGRGDSPYSGRGDSPYSGRGDSPYSGRGDSPYSGRGDSPYSGRGDSPYSGRGDSPYSGRGDSPYSGRGDSPYSGRGDSPYSGRGDSPYSGRGDSPYSGRGDSPYSGRGDSPYSGRGDSPYSGRGDSPYSGRGDSPYSGRGDSPYSGRGDSPYSGRGDSPYSGRGDSPYSGRGDSPYSGRGDSPYSGRGDSPYSGRGDQPHNGRGDQPHNGRGDQPHNGRGDQPHNGRGDQPHNGRGDQPHNGRGDQPHNGRGDQPHNGRGDQPHNGRGDQPHNGRGDQPHNGRGDQPHNGRGDQPHNGRGDQPHNGRGDQPHNGRGDQPHNGRGDQPHNGRGDQPHNGRGDQPHNGRGDQPHNGRGDQPHNGRGDQPHNGRGDQPHNGRGDQPHNGRGDQPHNGRGDQPHNGRGDQPHNGRGDQPHNGRGDQPHNGRGDQPHNGRGDQPHNGRGDQPHNGRGDQPHNGRGDQPHNGRGDQPHNGRGDQPHNGRGDQPHNGRGDQPHNGRGDQPHNGRGDQPHN
Take B2: in series [2], the “aggregation number (Nagg)” value stood at 43, the “hydrodynamic radius (Rh)” value amounted to 28.4 nm, the “radius of gyration (Rg)” value came to 35.1 nm and the ρ was 1.2. In series [2], the Nagg is 43, the “Rg(nm)” value amounted to 35.1 nm and the “Rh (nm)” value is on record as 28.4 nm. Also, in series [3], the “micelle to aggregate transition (UCST aggregation)” value came out at 28 °C and the “unimer to micelle transition (critical micellization temperature, CMT)” value was approximately 55 °C. Further, the “critical micelle concentration (CMC)” value in series [4] was found to be 3 µM.

B3: Tn3: UAA5-40-K8D4-ligand construct with DR5-targeting Tn3 ligand (SEQ ID NO: 62) (protein)
chain: AIEVKDVTDTTALITWAKPWVDPPPLWGIELTYGIKDVPGDRTTIDLQQKHTAYSIGNLKPDTEYEVSLISFDPYGMRSKPAKETFTT
Regarding B3, the Kd in series [5] came to 0.25 nM.

(Values after US20230093708A1, “PROTEIN NANOPARTICLE DESIGN AND APPLICATION” (Duke University, priority 2020, published 2023).)
